According to US20200188499A1:

Tests used:
[1] = biological target: VARITECT (human polyclonal antibodies directed against Varicella Zoster antigens); test: inhibition ELISA with VARITECT; gE content divided by titer of the standard; lyophilised gE
[2] = biological target: VARITECT (human polyclonal antibodies directed against Varicella Zoster antigens); test: inhibition ELISA with VARITECT; gE content divided by titer of the standard; co-lyophilised gE/AS01
[3] = biological target: VARITECT (human polyclonal antibodies directed against Varicella Zoster antigens); test: inhibition ELISA with VARITECT; gE content divided by titer of the standard; control VZV gE vaccine
[4] = biological target: VARITECT (human polyclonal antibodies directed against Varicella Zoster antigens); test: inhibition ELISA with VARITECT; gE content by ELISA divided by Lowry protein; lyophilised gE
[5] = biological target: VARITECT (human polyclonal antibodies directed against Varicella Zoster antigens); test: inhibition ELISA with VARITECT; gE content by ELISA divided by Lowry protein; co-lyophilised gE/AS01
[6] = biological target: VARITECT (human polyclonal antibodies directed against Varicella Zoster antigens); test: inhibition ELISA with VARITECT; gE content by ELISA divided by Lowry protein; control VZV gE vaccine
[7] = biological target: VARITECT (human polyclonal antibodies directed against Varicella Zoster antigens); test: inhibition ELISA with VARITECT; gE content by ELISA divided by Lowry protein; sample gE/AS01 before lyophilisation
[8] = biological target: VARITECT (human polyclonal antibodies directed against Varicella Zoster antigens); test: inhibition ELISA with VARITECT; gE content by ELISA divided by Lowry protein; gE before lyophilisation

VZV gE antigen (truncated form of the Varicella Zoster Virus glycoprotein E) (from UniProt P09259 31-546)
Potency [1]: 0.98 | Potency [2]: 1.02 | Potency [3]: 0.92 | Antigenic activity (gE/prot) [4]: 1.01 | Antigenic activity (gE/prot) [5]: 0.99 | Antigenic activity (gE/prot) [6]: 1.15 | Antigenic activity (gE/prot) [7]: 0.96 | Antigenic activity (gE/prot) [8]: 1.05
